Substitutions are numbered along the chain they refer to.

The values below come from patent publication USRE46585 (LABORATOIRE FRANCAIS DU FRACTIONNEMENT ET DES …, dated 2017).

B1: C6A_04 (other)
chain: CPPCPAPELLGGPSVFLFPPKPKDTLMISRTPEVTCVVVDVSHEDPEVKFNWYVDGVEVHNAKTKPREEQYNSTYRVVSVLTVLHQDWLNGKEYKCKVSNKALPAPIEKTISKAKGRPREPQVYTLPPSRDELTKNQVSLTCLVKGFYPSDIAVEWVSNGQPENNYKTTPPVLDSDGSFFLYSKLTVDKSRWQQGNVFSCSVMHEALHYHYTQKSLSLSPGK
notes: EU numbering
B2: T3A_13 (other)
chain: B1 chain with N90D, R117Q, V144A, V157E
notes: EU numbering
B3: C7A_68 (other)
chain: B1 chain with V39E, N90D, R117Q, A153V, V157E, N165S, G195R
notes: EU numbering
B4: M3B_23 (other)
chain: B1 chain with F16L, V39E, T82P, R117Q, V157E, Y209N
notes: EU numbering
B5: M3A_06 (other)
chain: B1 chain with F16L, V39E, R117Q, A153T, V157E, V172M, Y209N
notes: EU numbering
B6: C7A_27 (other)
chain: B1 chain with V39E, T82N, R117Q, A153V, V157E, V172M
notes: EU numbering
B7: T3A_43 (other)
chain: B1 chain with V39E, R117Q, E120G, A153V, V157E, Y209N
notes: EU numbering
B8: C6A_36 (other)
chain: B1 chain with T82P, N90D, R117Q, V157G, Q194H
notes: EU numbering
B9: T4A_26 (other)
chain: B1 chain with V39E, T82P, R117Q, A153V, V157G, Q161R, Y209N
notes: EU numbering
B10: M3A_26 (other)
chain: B1 chain with V39E, T82P, K115E, A153V, V157E, Y209N
notes: EU numbering
B11: M3A_18 (other)
chain: B1 chain with T82P, R117Q, A153V, V157E, N196T, Y209N
notes: EU numbering
B12: T3A_41 (other)
chain: B1 chain with V39E, T82P, R117Q, A153V, V157E, Y209N
notes: EU numbering
B13: T3A_10 (other)
chain: B1 chain with N90D, A105V, R117Q, V157E, N164K
notes: EU numbering
B14: C7A_49 (other)
chain: B1 chain with N90D, A105V, R117Q, V157E, T169A
notes: EU numbering
B15: M3B_04 (other)
chain: B1 chain with F16L, V39E, A153V, V157E, Y209N
notes: EU numbering
B16: C8A_61 (other)
chain: B1 chain with P5T, V39E, R117Q, V157E, P171L
notes: EU numbering
B17: C8A_14 (other)
chain: B1 chain with V80A, R117Q, V157E, Q161R
notes: EU numbering
B18: C7A_37 (other)
chain: B1 chain with F16L, N90D, R117Q, V157E, N164K
notes: EU numbering
B19: M3A_34 (other)
chain: B1 chain with S42N, T82N, R117Q, K145R, A153V, V157E, Y209N
notes: EU numbering
B20: T3A_47 (other)
chain: B1 chain with T82P, R117Q, A153T, V157E, V172M, Y209N
notes: EU numbering
B21: C7A_43 (other)
chain: B1 chain with V39E, T82P, R117Q, A153V, V157E, P171S, Y209S
notes: EU numbering
B22: M3A_08 (other)
chain: B1 chain with V39E, T82P, R117Q, A153T, V157E, V172M, Y209N
notes: EU numbering
B23: C7A_18 (other)
chain: B1 chain with V39E, R117Q, A153V, V157E, K189R, N196T
notes: EU numbering
B24: T3A_16 (other)
chain: B1 chain with F16L, V39E, T82P, R117Q, A153V, V157E, Y209N
notes: EU numbering
B25: T3A_34 (other)
chain: B1 chain with V39E, R117Q, P127S, A153V, V157E, Y209N
notes: EU numbering
B26: C6A_05 (other)
chain: B1 chain with T82A, N90D, A105V, R117Q, V157E
notes: EU numbering
B27: T3A_08 (other)
chain: B1 chain with V39E, R117Q, A153V, V157E, F179L, Y209N
notes: EU numbering
B28: M3A_21 (other)
chain: B1 chain with F16L, V39E, T82P, R117Q, A153V, V157E, N196T, Y209N
notes: EU numbering
B29: T3A_01 (other)
chain: B1 chain with V39E, T82P, R117Q, A153V, V157E, N196T, Y209N
notes: EU numbering
B30: T4A_04 (other)
chain: B1 chain with N90D, A105V, R117Q
notes: EU numbering
B31: T4A_18 (other)
chain: B1 chain with N90D
notes: EU numbering
B32: C8A_08 (other)
chain: B1 chain with V39A, N90D, A105V, R117Q, V157E
notes: EU numbering
B33: C7A_13 (other)
chain: B1 chain with F16L, V39E, R117Q, A153V, V157E, N196T
notes: EU numbering
B34: M3A_35 (other)
chain: B1 chain with V39E, N90D, R117Q, V157E, P171L, Y209N
notes: EU numbering
B35: T4A_19 (other)
chain: B1 chain with T82P, R117Q, A153V, V157E, Y209S
notes: EU numbering
B36: M3A_12 (other)
chain: B1 chain with N90D, R117Q, Q137R, V157E, N196D, Y209S
notes: EU numbering
B37: C7A_22 (other)
chain: B1 chain with N90D, K109E, R117Q, A153V, V157E
notes: EU numbering
B38: C8A_41 (other)
chain: B1 chain with N90D, R117Q, H208P
notes: EU numbering
B39: T3A_22 (other)
chain: B1 chain with F16L, V39E, R117Q, A153V, V157E, Y209S
notes: EU numbering
B40: C7A_89 (other)
chain: B1 chain with T82P, A102T, R117Q, V157E, N164T, N196T
notes: EU numbering
B41: T3A_30 (other)
chain: B1 chain with V39E, R117Q, A153V, V157E, V197A, Y209N
notes: EU numbering
B42: T3A_15 (other)
chain: B1 chain with V39E, R117Q, A153V, V157E, T169A, F179L, Y209S
notes: EU numbering
B43: C6A_35 (other)
chain: B1 chain with T25A, N90D, A105V, R117Q, V157E
notes: EU numbering
B44: T3A_11 (other)
chain: B1 chain with P66S, N90D, A102V, A105V, R117Q, V157E
notes: EU numbering
B45: C7A_02 (other)
chain: B1 chain with V39E, R117Q, K145R, A153V, V157E
notes: EU numbering

T1 sequence (P55899 24-297, chain 1 of 2): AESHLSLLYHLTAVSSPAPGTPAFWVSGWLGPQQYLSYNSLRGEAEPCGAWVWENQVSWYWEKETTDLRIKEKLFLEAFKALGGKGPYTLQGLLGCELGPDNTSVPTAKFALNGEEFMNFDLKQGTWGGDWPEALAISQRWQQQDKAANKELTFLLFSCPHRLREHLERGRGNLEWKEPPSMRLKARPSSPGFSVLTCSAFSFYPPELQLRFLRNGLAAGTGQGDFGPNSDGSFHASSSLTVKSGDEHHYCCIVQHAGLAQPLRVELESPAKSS
T1 sequence (P61769 21-119, chain 2 of 2): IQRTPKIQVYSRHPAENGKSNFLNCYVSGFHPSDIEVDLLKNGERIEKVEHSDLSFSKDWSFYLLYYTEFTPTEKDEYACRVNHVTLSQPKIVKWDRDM

The first experiment concerns the target T1, FcRn-p3 fusion protein (human, UniProt P55899 24-297; P61769 21-119).
T1 construct: baculovirus expressed; coated on ELISA wells; not shown: amino terminal part of bacteriophage p3 protein and CVDE protein
Nature of the experiment: phage ELISA pH6. On the technique in general: An ELISA detects its analyte on a solid surface through an enzyme-linked reagent.
B1: the Ratio/Fc-H amounted to 2.9 fold.

B2: the Ratio/Fc-H worked out at 1.8 fold.

For the molecule B3, the Ratio/Fc-H came out at 3.4 fold.

For the molecule B4, the Ratio/Fc-H came to 1.2 fold.

On to B5, for which the Ratio/Fc-H is 1.8 fold.

Turning to B6, the Ratio/Fc-H was determined as 2.6 fold.

In the case of B7, the Ratio/Fc-H was 1.4 fold.

For B8, the Ratio/Fc-H stood at 3.4 fold.

In the case of B9, the Ratio/Fc-H stood at 3.6 fold.

In the case of B10, the Ratio/Fc-H worked out at 1.8 fold.

In the case of B11, the Ratio/Fc-H is 1.9 fold.

In the case of B12, the Ratio/Fc-H turned out to be 2.3 fold.

For the molecule B13, the Ratio/Fc-H was 2.4 fold.

Take B14: the Ratio/Fc-H was 1.7 fold.

Take B15: the Ratio/Fc-H was 1.7 fold.

With B16, the Ratio/Fc-H is 1.7 fold.

With B17, the Ratio/Fc-H was 2.4 fold.

As for B18, the Ratio/Fc-H came to 2.2 fold.

Consider B19, for which the Ratio/Fc-H was found to be 1.3 fold.

For the molecule B20, the Ratio/Fc-H stood at 2 fold.

Regarding B21, the Ratio/Fc-H stood at 3.6 fold.

For B22, the Ratio/Fc-H was 1.7 fold.

On to B23, for which the Ratio/Fc-H stood at 2.8 fold.

As for B24, the Ratio/Fc-H was determined as 2.3 fold.

Take B25: the Ratio/Fc-H turned out to be 1.4 fold.

For the molecule B26, the Ratio/Fc-H came out at 1.9 fold.

On to B27, for which the Ratio/Fc-H was found to be 1.1 fold.

Regarding B28, the Ratio/Fc-H turned out to be 2.6 fold.

Take B29: the Ratio/Fc-H stood at 2.4 fold.

B30: the Ratio/Fc-H was 3 fold.

With B31, the Ratio/Fc-H is 3 fold.

B32: the Ratio/Fc-H came to 2 fold.

In the case of B33, the Ratio/Fc-H was found to be 2.3 fold.

Turning to B34, the Ratio/Fc-H is 1.1 fold.

Turning to B35, the Ratio/Fc-H is 3.6 fold.

On to B36, for which the Ratio/Fc-H was found to be 1.1 fold.

Regarding B37, the Ratio/Fc-H stood at 1.8 fold.

As for B38, the Ratio/Fc-H stood at 2.7 fold.

In the case of B39, the Ratio/Fc-H was 3.8 fold.

For B40, the Ratio/Fc-H was 2.3 fold.

On to B41, for which the Ratio/Fc-H turned out to be 1.1 fold.

For B42, the Ratio/Fc-H came to 2.8 fold.

Take B43: the Ratio/Fc-H came out at 1.8 fold.

B44: the Ratio/Fc-H came to 1.3 fold.

B45: the Ratio/Fc-H turned out to be 2.2 fold.

The next experiment has as its target T1, FcRn-p3 fusion protein. Put plainly: phage ELISA pH6 (est.).
Take B1: the Ratio/FWT stood at 9.4 fold.

For B2, the Ratio/FWT amounted to 5.6 fold.

Regarding B3, the Ratio/FWT stood at 10.9 fold.

For the molecule B4, the Ratio/FWT was 3.8 fold.

Regarding B5, the Ratio/FWT turned out to be 5.7 fold.

With B6, the Ratio/FWT turned out to be 8.2 fold.

Consider B7, for which the Ratio/FWT was found to be 4.5 fold.

As to B8, the Ratio/FWT is 10.9 fold.

As for B9, the Ratio/FWT was 11.5 fold.

For the molecule B10, the Ratio/FWT came out at 5.6 fold.

B11: the Ratio/FWT was determined as 6.2 fold.

For B12, the Ratio/FWT was 7.2 fold.

Consider B13, for which the Ratio/FWT was found to be 7.8 fold.

With B14, the Ratio/FWT was determined as 5.3 fold.

In the case of B15, the Ratio/FWT came out at 5.5 fold.

For the molecule B16, the Ratio/FWT came to 5.5 fold.

Take B17: the Ratio/FWT was determined as 7.6 fold.

With B18, the Ratio/FWT is 6.9 fold.

Turning to B19, the Ratio/FWT turned out to be 4.3 fold.

For the molecule B20, the Ratio/FWT came to 6.3 fold.

Regarding B21, the Ratio/FWT amounted to 11.5 fold.

On to B22, for which the Ratio/FWT came out at 5.6 fold.

With B23, the Ratio/FWT turned out to be 8.9 fold.

For the molecule B24, the Ratio/FWT was determined as 7.4 fold.

As to B25, the Ratio/FWT came out at 4.6 fold.

For B26, the Ratio/FWT came out at 6.2 fold.

With B27, the Ratio/FWT was found to be 3.5 fold.

With B28, the Ratio/FWT was found to be 8.4 fold.

With B29, the Ratio/FWT worked out at 7.8 fold.

For the molecule B30, the Ratio/FWT is 9.7 fold.

Regarding B31, the Ratio/FWT worked out at 9.7 fold.

Turning to B32, the Ratio/FWT is 6.4 fold.

Regarding B33, the Ratio/FWT turned out to be 7.4 fold.

Regarding B34, the Ratio/FWT came to 3.7 fold.

For the molecule B35, the Ratio/FWT is 11.4 fold.

Take B36: the Ratio/FWT was determined as 3.4 fold.

Turning to B37, the Ratio/FWT was 5.7 fold.

Take B38: the Ratio/FWT was determined as 8.8 fold.

Regarding B39, the Ratio/FWT came to 12.2 fold.

Regarding B40, the Ratio/FWT came out at 7.4 fold.

For the molecule B41, the Ratio/FWT is 3.4 fold.

For the molecule B42, the Ratio/FWT worked out at 8.9 fold.

On to B43, for which the Ratio/FWT stood at 5.7 fold.

Take B44: the Ratio/FWT stood at 4 fold.

In the case of B45, the Ratio/FWT worked out at 6.9 fold.
